Drawing on PMC7313415 (Journal of immunology (Baltimore, Md. : 1950), 2020), this text covers Kd for three molecules.

Holding throughout (experiment): SPR
In experiment [1] the target is Biotin-labeled SUMO-fusion mouse TRIM14 (residues 247-440) (mouse) (UniProt Q8BVW3).
The target in experiment [2] is human cGAS (residues 157-522) (human, UniProt Q8N884 157-522).
Another experiment deals with T1, full-length human TBK1 (human, UniProt Q9UHD2 1-729).
T1 sequence (looked up): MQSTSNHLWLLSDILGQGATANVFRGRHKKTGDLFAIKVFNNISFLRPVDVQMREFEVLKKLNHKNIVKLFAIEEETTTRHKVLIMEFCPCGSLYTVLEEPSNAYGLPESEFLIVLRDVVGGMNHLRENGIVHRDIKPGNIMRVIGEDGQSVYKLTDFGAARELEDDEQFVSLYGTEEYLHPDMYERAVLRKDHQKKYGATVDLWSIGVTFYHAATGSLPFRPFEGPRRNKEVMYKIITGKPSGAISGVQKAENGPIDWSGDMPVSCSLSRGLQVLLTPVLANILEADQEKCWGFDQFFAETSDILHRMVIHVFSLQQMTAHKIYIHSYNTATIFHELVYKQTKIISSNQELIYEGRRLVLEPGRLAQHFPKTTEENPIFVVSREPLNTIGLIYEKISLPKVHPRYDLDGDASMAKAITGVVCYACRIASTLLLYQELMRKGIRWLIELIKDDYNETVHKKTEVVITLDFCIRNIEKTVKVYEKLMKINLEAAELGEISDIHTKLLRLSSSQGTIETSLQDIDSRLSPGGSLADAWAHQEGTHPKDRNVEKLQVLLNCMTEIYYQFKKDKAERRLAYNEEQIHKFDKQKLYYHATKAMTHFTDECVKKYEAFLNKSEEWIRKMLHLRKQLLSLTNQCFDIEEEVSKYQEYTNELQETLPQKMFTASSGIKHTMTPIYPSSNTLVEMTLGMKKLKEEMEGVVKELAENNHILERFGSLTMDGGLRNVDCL

By Kd is commonly meant a measure of binding affinity in units of concentration.

Sequence of human cGAS (residues 157-522) (Q8N884 157-522): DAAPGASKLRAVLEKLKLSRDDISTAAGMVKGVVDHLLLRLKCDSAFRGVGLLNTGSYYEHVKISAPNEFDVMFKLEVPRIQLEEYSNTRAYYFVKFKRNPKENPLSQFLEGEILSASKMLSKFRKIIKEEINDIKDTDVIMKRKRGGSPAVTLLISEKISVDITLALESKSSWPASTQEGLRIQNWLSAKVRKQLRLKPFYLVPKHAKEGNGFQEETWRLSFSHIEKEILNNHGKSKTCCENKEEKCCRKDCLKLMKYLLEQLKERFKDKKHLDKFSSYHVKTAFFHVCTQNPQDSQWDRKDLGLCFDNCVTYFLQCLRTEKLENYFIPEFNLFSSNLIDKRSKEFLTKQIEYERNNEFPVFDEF

In turn, “human TBK1 (residues 1 to 657) (from UniProt Q9UHD2 1-657) (domain or fragment)” showed a Kd in experiment [1] of 42.6 µM. This lies in the double-digit micromolar range.

In experiment [1], “mouse TBK1 (residues 1 to 657) (from UniProt Q9WUN2 1-657) (domain or fragment)” returned a dissociation constant (Kd) of 24.3 µM.

B1: Biotin-labeled SUMO-fusion mouse TRIM14 (residues 247-440) (domain or fragment, UniProt Q8BVW3 247-440, looked up)
chain: ALLKTSPSPERALFLKYARTPTLDPDTMHARLRLSPDGLTVRCSLLGRLGPRPAPRFDALRQVLGRDGFAAGRHYWEVDVQEAGVGWWVGAAYPSLRRRGASAAARLGCNRESWCVKRYDLEYWAFHDGQRSRLRPRRDPHRLGVFLDYEAGILAFYDVAGGMSHLHTFHAAFQEPLYPALRLWEGPISIPRLP
modifications: biotin (Avi tag, labelled by BirA)
For the molecule B1, the figures for the Kd (in experiment [2]; with full-length human TBK1) were 25.8 µM and 11 µM, respectively.
